Consider 2 molecules from paper PMC10227085, “OsMADS17 simultaneously increases grain number and grain weight in rice”.

The target in one series is MBP-OsMADS1 (Oryza sativa, UniProt Q10PZ9 1-257). The experiment in a line: EMSA; cold probe competition at 20x and 200x; 20 uL with 2 uL biotin probe, 5 ug protein, 2 uL 10x binding buffer (composition not given), 1 uL 50% glycerol; 30 min at room temperature; 6% native PAGE, 0.5x TBE. Particulars: protein: recombinant; tags: N-terminal MBP; chain copies: 2; blunt.
Chain of MBP-OsMADS1 (Q10PZ9 whole entry): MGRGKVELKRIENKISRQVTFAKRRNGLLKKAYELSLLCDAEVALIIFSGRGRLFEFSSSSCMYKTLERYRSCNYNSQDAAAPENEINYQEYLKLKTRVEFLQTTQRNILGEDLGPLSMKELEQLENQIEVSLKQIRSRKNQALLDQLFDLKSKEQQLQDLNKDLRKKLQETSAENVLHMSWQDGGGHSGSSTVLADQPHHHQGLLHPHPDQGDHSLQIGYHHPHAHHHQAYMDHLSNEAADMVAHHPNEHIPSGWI
The target in the next series is MBP-OsMADS17 (Oryza sativa, UniProt Q7XUN2 1-249). Described as above. Particulars: protein: recombinant; tags: N-terminal MBP; chain copies: 2; blunt.
Chain of MBP-OsMADS17 (Q7XUN2 whole entry): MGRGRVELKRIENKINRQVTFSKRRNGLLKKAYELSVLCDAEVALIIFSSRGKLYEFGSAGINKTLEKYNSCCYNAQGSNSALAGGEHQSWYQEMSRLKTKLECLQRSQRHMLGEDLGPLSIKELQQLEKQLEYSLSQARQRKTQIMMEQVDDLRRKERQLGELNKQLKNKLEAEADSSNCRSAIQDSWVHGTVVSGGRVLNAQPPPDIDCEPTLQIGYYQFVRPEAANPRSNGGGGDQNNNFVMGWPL

B1: EMSA-probe-OsMADS17 (dsDNA)
DNA 1: TCTCTGCTCCTTTATATGGGGTTACA
DNA 2: TGTAACCCCATATAAAGGAGCAGAGA
Consider B1, for which, in the series with MBP-OsMADS1, the binding result is reported as “binds”.

B2: EMSA-probe-OsAP2-39 (dsDNA)
DNA 1: AAACCTTACCAAATTTTGGTAAAGTTGCCAAAAAAATGGCTATATTTA
DNA 2: TAAATATAGCCATTTTTTTGGCAACTTTACCAAAATTTGGTAAGGTTT
Turning to B2, the binding result in the series with MBP-OsMADS17 is recorded as “binds”.
